Results reported in patent US20210284729A1.
Values joined by “and” are separate entries in the source; they are usually repeats but may differ in a detail not shown here. Identical values can stand only once.

Biological target: 4-1BB (CD137) on T cells (human) (UniProt Q07011)
Assay: cell-based or functional assay

4-1BB (CD137) on T cells (human), sequence (Q07011 24-255): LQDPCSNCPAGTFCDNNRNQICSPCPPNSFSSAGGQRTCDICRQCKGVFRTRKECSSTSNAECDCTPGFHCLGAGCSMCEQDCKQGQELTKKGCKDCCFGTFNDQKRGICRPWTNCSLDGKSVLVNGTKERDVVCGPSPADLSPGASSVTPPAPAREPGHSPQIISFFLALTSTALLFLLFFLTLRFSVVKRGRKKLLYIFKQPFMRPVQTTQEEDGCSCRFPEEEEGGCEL

Question: “co-stimulatory 4-1BB ligand (CD137L) expressed on the surface of gene-modified hMSCs (SCP-1) (from UniProt P41273 1-254)” was tested. Which IFN-gamma secretion by T cells (ELISA, 24 h) did it give?
Answer: > 10 fold

Question: And the T cell expansion (T cell number at day 6 to day 0)?
Answer: 2 fold and 3 fold

Question: And the TNF-alpha secretion by T cells (ELISA, 24 h)?
Answer: < 8 fold

Question: What about the expansion of autologous AML patient T cells after 96 h of co-culture of the same substance?
Answer: 3 fold
